Results published in patent EP4810611A2.
Where a chain is given by its changes, count along the chain named.

B1: anti-TRBV9-1 monoclonal antibody (antibody, human IgG1, kappa, V domains shown)
VH: QIQLVQSGPELREPGESVKLSCKASGYTFTDYLVHWVKQAPGKGLKWMGWINTYTGTPTYADDFEGRFVFSLEASASTANLQISNLKNEDTATYFCARSWRRGLRGLGFDYWGQGVFVTVSS
VL: DVQMTQSPYNLAASPGESVSINCKASKSINKYLAWYQQKPGKPNKLLIYDGSTLQSGIPSRFSGSGSGTDFTLTIRGLEPEDFGLYYCQQHNEYPPTFGAGTKLELKR
B2: anti-TRBV9-2 monoclonal antibody (antibody, human IgG1, kappa, V domains shown)
VH: B1 VH with L107I
VL: B1 VL
B3: anti-TRBV9-3 monoclonal antibody (antibody, human IgG1, kappa, V domains shown)
VH: B1 VH with L104I
VL: B1 VL
B4: anti-TRBV9-4 monoclonal antibody (antibody, human IgG1, kappa, V domains shown)
VH: B1 VH with L104I, L107I
VL: B1 VL

Columns and labels:
TRBV9+TRAV38 antigen [1] = assay: BLI (OctetRed 96), antigen on AR2G sensors, antibody 126-2 nM, 1:1 model; run 2
TRBV9+TRAV26 antigen [2] = assay: as above
TRBV9+TRAV38 antigen [3] = assay: BLI (OctetRed 96), antigen on AR2G sensors, antibody 126-2 nM, 1:1 model; run 1
TRBV9+TRAV26 antigen [4] = assay: as above
TRBV9+TRAV38 antigen [5] = assay: BLI (OctetRed 96), antigen on AR2G sensors, antibody 126-2 nM, 1:1 model; run 3
TRBV9+TRAV26 antigen [6] = assay: as above
[7] = biological target: human T cell receptor with a beta-chain of the TRBV9 family, on T lymphocytes of the mononuclear fraction of human blood (human); assay: flow cytometry, FITC-labelled antibody on human blood mononuclear cells, 5 and 0.5 ng/µl
human T cell receptor with a beta-chain of the TRBV9 family, on T lymphocytes of the mononuclear fraction of human blood (human), sequence (A0A0B4J1U6 22-114): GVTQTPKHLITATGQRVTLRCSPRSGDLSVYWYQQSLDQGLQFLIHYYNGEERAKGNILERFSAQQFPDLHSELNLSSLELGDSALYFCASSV

| Binder | Kd (TRBV9+TRAV38 antigen [1]) | koff (TRBV9+TRAV38 antigen [1]) | kon (TRBV9+TRAV38 antigen [1]) | Kd (TRBV9+TRAV26 antigen [2]) | koff (TRBV9+TRAV26 antigen [2]) | kon (TRBV9+TRAV26 antigen [2]) | Kd (TRBV9+TRAV38 antigen [3]) | koff (TRBV9+TRAV38 antigen [3]) | kon (TRBV9+TRAV38 antigen [3]) | Kd (TRBV9+TRAV26 antigen [4]) | koff (TRBV9+TRAV26 antigen [4]) | kon (TRBV9+TRAV26 antigen [4]) | Kd (TRBV9+TRAV38 antigen [5]) | koff (TRBV9+TRAV38 antigen [5]) | kon (TRBV9+TRAV38 antigen [5]) | Kd (TRBV9+TRAV26 antigen [6]) | koff (TRBV9+TRAV26 antigen [6]) | kon (TRBV9+TRAV26 antigen [6]) | staining, share of the CD3-positive fraction [7] |
| --- | --- | --- | --- | --- | --- | --- | --- | --- | --- | --- | --- | --- | --- | --- | --- | --- | --- | --- | --- |
| B1 | 0.365 nM | 0.000205 s⁻¹ | 562000 M⁻¹ s⁻¹ | 0.278 nM | 0.000183 s⁻¹ | 658000 M⁻¹ s⁻¹ | 0.414 nM | 0.000183 s⁻¹ | 441000 M⁻¹ s⁻¹ | 0.22 nM | 0.000113 s⁻¹ | 515000 M⁻¹ s⁻¹ | 0.529 nM | 0.000196 s⁻¹ | 371000 M⁻¹ s⁻¹ | 0.204 nM | 0.000114 s⁻¹ | 559000 M⁻¹ s⁻¹ |  |
| B2 | < 0.001 nM | < 1e-07 s⁻¹ | 289000 M⁻¹ s⁻¹ | < 0.001 nM | < 1e-07 s⁻¹ | 381000 M⁻¹ s⁻¹ | < 0.001 nM | < 1e-07 s⁻¹ | 397000 M⁻¹ s⁻¹ | 0.0135 nM | 6.02e-06 s⁻¹ | 447000 M⁻¹ s⁻¹ |  |  |  |  |  |  | 2.9% |
| B3 | 0.4 nM | 9.16e-05 s⁻¹ | 229000 M⁻¹ s⁻¹ | 0.582 nM | 9.8e-05 s⁻¹ | 168000 M⁻¹ s⁻¹ | 0.311 nM | 9.61e-05 s⁻¹ | 309000 M⁻¹ s⁻¹ | 0.319 nM | 9.16e-05 s⁻¹ | 287000 M⁻¹ s⁻¹ |  |  |  |  |  |  |  |
| B4 | < 0.001 nM | < 1e-07 s⁻¹ | 476000 M⁻¹ s⁻¹ | < 0.001 nM | < 1e-07 s⁻¹ | 579000 M⁻¹ s⁻¹ | < 0.001 nM | < 1e-07 s⁻¹ | 713000 M⁻¹ s⁻¹ | < 0.001 nM | < 1e-07 s⁻¹ | 865000 M⁻¹ s⁻¹ |  |  |  |  |  |  |  |
